From patent US20140087995A1 (published 2014)
Numbered stars: 1 amine (or outer) side, 2 acyl side, 3 side chain; on linkers, the order of the positions; unused ones are H or OH. Bridge positions count the residues as written; N and C are the ends. Side chains are listed from the residue outwards. Ends that are not written are not given here. * marks the point of attachment. C20 diacid = O=C(O)CCCCCCCCCCCCCCCCCCC(=O)*; γGlu = O=C(O)[C@H](CCC(=O)[*:2])N[*:1]; AEEA = NCCOCCOCC(=O)O

T1: human calcitonin receptor (human, UniProt P30988 25-474)
T1 construct: whole, on cells; also called hCTR; hCT
T1 sequence (looked up): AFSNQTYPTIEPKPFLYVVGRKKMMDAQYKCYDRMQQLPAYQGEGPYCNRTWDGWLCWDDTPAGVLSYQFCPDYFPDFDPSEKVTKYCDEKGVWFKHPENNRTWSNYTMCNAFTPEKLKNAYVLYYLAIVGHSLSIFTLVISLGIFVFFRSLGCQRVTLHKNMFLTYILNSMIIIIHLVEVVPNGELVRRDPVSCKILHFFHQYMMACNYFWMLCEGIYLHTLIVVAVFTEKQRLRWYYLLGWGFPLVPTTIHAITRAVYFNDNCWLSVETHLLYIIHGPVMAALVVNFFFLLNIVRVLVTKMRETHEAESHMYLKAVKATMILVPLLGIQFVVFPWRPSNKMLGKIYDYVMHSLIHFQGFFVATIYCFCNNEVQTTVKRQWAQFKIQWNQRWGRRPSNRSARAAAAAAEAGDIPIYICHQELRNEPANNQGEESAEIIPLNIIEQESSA

T2: rat calcitonin receptor (rat, UniProt P32214 25-516)
T2 construct: whole, on cells; also called rCTR; rat calcitonin (a) receptor
T2 sequence (looked up): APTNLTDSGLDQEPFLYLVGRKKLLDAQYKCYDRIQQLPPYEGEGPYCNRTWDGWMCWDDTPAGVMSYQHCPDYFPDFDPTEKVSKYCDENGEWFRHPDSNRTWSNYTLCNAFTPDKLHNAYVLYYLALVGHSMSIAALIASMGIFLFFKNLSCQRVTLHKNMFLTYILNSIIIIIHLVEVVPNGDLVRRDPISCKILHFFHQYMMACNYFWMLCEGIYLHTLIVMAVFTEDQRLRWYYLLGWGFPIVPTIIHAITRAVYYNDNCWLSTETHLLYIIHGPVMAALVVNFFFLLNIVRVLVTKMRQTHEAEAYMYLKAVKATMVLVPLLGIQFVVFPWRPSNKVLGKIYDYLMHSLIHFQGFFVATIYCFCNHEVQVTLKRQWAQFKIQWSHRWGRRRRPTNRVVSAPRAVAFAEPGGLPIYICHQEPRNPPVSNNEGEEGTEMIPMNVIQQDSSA

T3: rat amylin receptor (rat calcitonin receptor + rat RAMP 3) (rat, UniProt P32214 25-516; Q9JJ73 23-147)
T3 construct: whole, on cells; also called rAmylin-R; rat amylin 3(a) receptor
T3 sequence (looked up) 1: T2 sequence (looked up)
T3 sequence (looked up) 2: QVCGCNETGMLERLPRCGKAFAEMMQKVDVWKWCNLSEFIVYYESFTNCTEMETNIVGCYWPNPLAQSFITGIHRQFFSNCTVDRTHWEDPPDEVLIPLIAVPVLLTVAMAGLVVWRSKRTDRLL

B1: N^ε1-[2-[2-[2-[[(4S)-4-carboxy-4-(19-carboxynonadecanoylamino)butanoyl]amino]ethoxy]ethoxy]acetyl]-[Arg17,Pro21,Pro27,Pro29,Pro31]-h-amylin (peptide)
peptide: K([AEEA-γGlu-C20 diacid])CNTATCATQRLANFLRHSSPNFGAIPSPTPVGSNTY-NH2
modifications: disulfide 2-7; N-terminus assumed
SMILES: CC[C@H](C)[C@H](NC(=O)[C@H](C)NC(=O)CNC(=O)[C@H](Cc1ccccc1)NC(=O)[C@H](CC(N)=O)NC(=O)[C@@H]1CCCN1C(=O)[C@H](CO)NC(=O)[C@H](CO)NC(=O)[C@H](Cc1c[nH]cn1)NC(=O)[C@H](CCCNC(=N)N)NC(=O)[C@H](CC(C)C)NC(=O)[C@H](Cc1ccccc1)NC(=O)[C@H](CC(N)=O)NC(=O)[C@H](C)NC(=O)[C@H](CC(C)C)NC(=O)[C@H](CCCNC(=N)N)NC(=O)[C@H](CCC(N)=O)NC(=O)[C@@H](NC(=O)[C@H](C)NC(=O)[C@@H]1CSSC[C@H](NC(=O)[C@@H](N)CCCCNC(=O)COCCOCCNC(=O)CC[C@H](NC(=O)CCCCCCCCCCCCCCCCCCC(=O)O)C(=O)O)C(=O)N[C@@H](CC(N)=O)C(=O)N[C@@H]([C@@H](C)O)C(=O)N[C@@H](C)C(=O)N[C@@H]([C@@H](C)O)C(=O)N1)[C@@H](C)O)C(=O)N1CCC[C@H]1C(=O)N[C@@H](CO)C(=O)N1CCC[C@H]1C(=O)N[C@H](C(=O)N1CCC[C@H]1C(=O)N[C@H](C(=O)NCC(=O)N[C@@H](CO)C(=O)N[C@@H](CC(N)=O)C(=O)N[C@H](C(=O)N[C@@H](Cc1ccc(O)cc1)C(N)=O)[C@@H](C)O)C(C)C)[C@@H](C)O
notes: synthetic analogue of human amylin; also called compound 54
B2: N^ε1-[2-[2-[2-[[(4S)-4-carboxy-4-(19-carboxynonadecanoylamino)butanoyl]amino]ethoxy]ethoxy]acetyl]-[Arg17,Pro21,Pro27,Pro29,Pro34]-h-amylin (peptide)
peptide: K([AEEA-γGlu-C20 diacid])CNTATCATQRLANFLRHSSPNFGAIPSPTNVGPNTY-NH2
modifications: disulfide 2-7; N-terminus assumed
SMILES: CC[C@H](C)[C@H](NC(=O)[C@H](C)NC(=O)CNC(=O)[C@H](Cc1ccccc1)NC(=O)[C@H](CC(N)=O)NC(=O)[C@@H]1CCCN1C(=O)[C@H](CO)NC(=O)[C@H](CO)NC(=O)[C@H](Cc1c[nH]cn1)NC(=O)[C@H](CCCNC(=N)N)NC(=O)[C@H](CC(C)C)NC(=O)[C@H](Cc1ccccc1)NC(=O)[C@H](CC(N)=O)NC(=O)[C@H](C)NC(=O)[C@H](CC(C)C)NC(=O)[C@H](CCCNC(=N)N)NC(=O)[C@H](CCC(N)=O)NC(=O)[C@@H](NC(=O)[C@H](C)NC(=O)[C@@H]1CSSC[C@H](NC(=O)[C@@H](N)CCCCNC(=O)COCCOCCNC(=O)CC[C@H](NC(=O)CCCCCCCCCCCCCCCCCCC(=O)O)C(=O)O)C(=O)N[C@@H](CC(N)=O)C(=O)N[C@@H]([C@@H](C)O)C(=O)N[C@@H](C)C(=O)N[C@@H]([C@@H](C)O)C(=O)N1)[C@@H](C)O)C(=O)N1CCC[C@H]1C(=O)N[C@@H](CO)C(=O)N1CCC[C@H]1C(=O)N[C@H](C(=O)N[C@@H](CC(N)=O)C(=O)N[C@H](C(=O)NCC(=O)N1CCC[C@H]1C(=O)N[C@@H](CC(N)=O)C(=O)N[C@H](C(=O)N[C@@H](Cc1ccc(O)cc1)C(N)=O)[C@@H](C)O)C(C)C)[C@@H](C)O
notes: synthetic analogue of human amylin; also called compound 56
B3: N^ε1-[2-[2-[2-[[(4S)-4-carboxy-4-(19-carboxynonadecanoylamino)butanoyl]amino]ethoxy]ethoxy]acetyl]-[Arg17,Pro21,Pro27,Pro31,His35]-h-amylin (peptide)
peptide: K([AEEA-γGlu-C20 diacid])CNTATCATQRLANFLRHSSPNFGAIPSSTPVGSHTY-NH2
modifications: disulfide 2-7; N-terminus assumed
SMILES: CC[C@H](C)[C@H](NC(=O)[C@H](C)NC(=O)CNC(=O)[C@H](Cc1ccccc1)NC(=O)[C@H](CC(N)=O)NC(=O)[C@@H]1CCCN1C(=O)[C@H](CO)NC(=O)[C@H](CO)NC(=O)[C@H](Cc1c[nH]cn1)NC(=O)[C@H](CCCNC(=N)N)NC(=O)[C@H](CC(C)C)NC(=O)[C@H](Cc1ccccc1)NC(=O)[C@H](CC(N)=O)NC(=O)[C@H](C)NC(=O)[C@H](CC(C)C)NC(=O)[C@H](CCCNC(=N)N)NC(=O)[C@H](CCC(N)=O)NC(=O)[C@@H](NC(=O)[C@H](C)NC(=O)[C@@H]1CSSC[C@H](NC(=O)[C@@H](N)CCCCNC(=O)COCCOCCNC(=O)CC[C@H](NC(=O)CCCCCCCCCCCCCCCCCCC(=O)O)C(=O)O)C(=O)N[C@@H](CC(N)=O)C(=O)N[C@@H]([C@@H](C)O)C(=O)N[C@@H](C)C(=O)N[C@@H]([C@@H](C)O)C(=O)N1)[C@@H](C)O)C(=O)N1CCC[C@H]1C(=O)N[C@@H](CO)C(=O)N[C@@H](CO)C(=O)N[C@H](C(=O)N1CCC[C@H]1C(=O)N[C@H](C(=O)NCC(=O)N[C@@H](CO)C(=O)N[C@@H](Cc1c[nH]cn1)C(=O)N[C@H](C(=O)N[C@@H](Cc1ccc(O)cc1)C(N)=O)[C@@H](C)O)C(C)C)[C@@H](C)O
notes: synthetic analogue of human amylin; also called compound 57
B4: N^ε1-[2-[2-[2-[[(4S)-4-carboxy-4-(19-carboxynonadecanoylamino)butanoyl]amino]ethoxy]ethoxy]acetyl]-[Arg17,Pro21,Pro27,Pro34]-h-amylin (peptide)
peptide: K([AEEA-γGlu-C20 diacid])CNTATCATQRLANFLRHSSPNFGAIPSSTNVGPNTY-NH2
modifications: disulfide 2-7; N-terminus assumed
SMILES: CC[C@H](C)[C@H](NC(=O)[C@H](C)NC(=O)CNC(=O)[C@H](Cc1ccccc1)NC(=O)[C@H](CC(N)=O)NC(=O)[C@@H]1CCCN1C(=O)[C@H](CO)NC(=O)[C@H](CO)NC(=O)[C@H](Cc1c[nH]cn1)NC(=O)[C@H](CCCNC(=N)N)NC(=O)[C@H](CC(C)C)NC(=O)[C@H](Cc1ccccc1)NC(=O)[C@H](CC(N)=O)NC(=O)[C@H](C)NC(=O)[C@H](CC(C)C)NC(=O)[C@H](CCCNC(=N)N)NC(=O)[C@H](CCC(N)=O)NC(=O)[C@@H](NC(=O)[C@H](C)NC(=O)[C@@H]1CSSC[C@H](NC(=O)[C@@H](N)CCCCNC(=O)COCCOCCNC(=O)CC[C@H](NC(=O)CCCCCCCCCCCCCCCCCCC(=O)O)C(=O)O)C(=O)N[C@@H](CC(N)=O)C(=O)N[C@@H]([C@@H](C)O)C(=O)N[C@@H](C)C(=O)N[C@@H]([C@@H](C)O)C(=O)N1)[C@@H](C)O)C(=O)N1CCC[C@H]1C(=O)N[C@@H](CO)C(=O)N[C@@H](CO)C(=O)N[C@H](C(=O)N[C@@H](CC(N)=O)C(=O)N[C@H](C(=O)NCC(=O)N1CCC[C@H]1C(=O)N[C@@H](CC(N)=O)C(=O)N[C@H](C(=O)N[C@@H](Cc1ccc(O)cc1)C(N)=O)[C@@H](C)O)C(C)C)[C@@H](C)O
notes: synthetic analogue of human amylin; also called compound 50
B5: N^ε1-[2-[2-[2-[[(4S)-4-carboxy-4-(19-carboxynonadecanoylamino)butanoyl]amino]ethoxy]ethoxy]acetyl]-[Arg17,Pro21,Pro27,Pro34,His35]-h-amylin (peptide)
peptide: K([AEEA-γGlu-C20 diacid])CNTATCATQRLANFLRHSSPNFGAIPSSTNVGPHTY-NH2
modifications: disulfide 2-7; N-terminus assumed
SMILES: CC[C@H](C)[C@H](NC(=O)[C@H](C)NC(=O)CNC(=O)[C@H](Cc1ccccc1)NC(=O)[C@H](CC(N)=O)NC(=O)[C@@H]1CCCN1C(=O)[C@H](CO)NC(=O)[C@H](CO)NC(=O)[C@H](Cc1c[nH]cn1)NC(=O)[C@H](CCCNC(=N)N)NC(=O)[C@H](CC(C)C)NC(=O)[C@H](Cc1ccccc1)NC(=O)[C@H](CC(N)=O)NC(=O)[C@H](C)NC(=O)[C@H](CC(C)C)NC(=O)[C@H](CCCNC(=N)N)NC(=O)[C@H](CCC(N)=O)NC(=O)[C@@H](NC(=O)[C@H](C)NC(=O)[C@@H]1CSSC[C@H](NC(=O)[C@@H](N)CCCCNC(=O)COCCOCCNC(=O)CC[C@H](NC(=O)CCCCCCCCCCCCCCCCCCC(=O)O)C(=O)O)C(=O)N[C@@H](CC(N)=O)C(=O)N[C@@H]([C@@H](C)O)C(=O)N[C@@H](C)C(=O)N[C@@H]([C@@H](C)O)C(=O)N1)[C@@H](C)O)C(=O)N1CCC[C@H]1C(=O)N[C@@H](CO)C(=O)N[C@@H](CO)C(=O)N[C@H](C(=O)N[C@@H](CC(N)=O)C(=O)N[C@H](C(=O)NCC(=O)N1CCC[C@H]1C(=O)N[C@@H](Cc1c[nH]cn1)C(=O)N[C@H](C(=O)N[C@@H](Cc1ccc(O)cc1)C(N)=O)[C@@H](C)O)C(C)C)[C@@H](C)O
notes: synthetic analogue of human amylin; also called compound 58

Target: T1, human calcitonin receptor
Test: ratio of binding IC50s: human calcitonin receptor over human amylin receptor (reference)
Outline: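 Competition binding by SPA with cell membranes (35 ng/μL) and SPA beads in 50 mM Hepes pH 7.4 with 1 mM CaCl2, 5 mM MgCl2, 0.1% OA and 0.02% Tween20. Incubated 120 min at 25 °C with shaking, then counted.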

Binder | Ratio hCT/hAmylin binding
B1 | 146
B2 | 42.6
B3 | 133
B4 | 36
B5 | 109

Target: T2, rat calcitonin receptor
Test: SPA competition with 125I-calcitonin, membranes of BHK cells with rat calcitonin receptor (Assay VIII)

Binder | IC50
B1 | 8.79 nM
B2 | 5.26 nM
B3 | 24.4 nM
B4 | 5.63 nM
B5 | 10.3 nM

Target: T2, rat calcitonin receptor
Test: ratio of binding IC50s: rat calcitonin receptor over rat amylin receptor (reference)

Binder | Ratio rCT/rAmylin binding
B1 | 179
B2 | 131
B3 | 135
B4 | 81.7
B5 | 76.6

Target: T3, rat amylin receptor (rat calcitonin …)
Test: SPA competition with 125I-rat amylin, membranes of BHK cells with rat calcitonin receptor + rat RAMP3 (Assay VI)

Binder | IC50
B1 | 0.049 nM
B2 | 0.04 nM
B3 | 0.181 nM
B4 | 0.069 nM
B5 | 0.135 nM
